For 167 variants, self-cleavage results are on record in the RNAGym collection of RNA variant scans (doi:10.7554/elife.80360).

The labels stand for the following.
B1: HDV Ribozyme (parent)
chain: GGCCGGCAUGGUCCCAGCCUCCUCGCUGGCGCCGGCUGGGCAACAUUCCGAGGGGACCGUCCCCUCGGUAAUGGCGAAUGGGACCCA

This data set covers variants of B1. Description: self-cleavage, relative activity (ratio to wild type); higher = more cleavage; co-transcriptional.
As to G5C A83G, the self-cleavage amounted to 0.0519. G5C A83C: the self-cleavage was found to be 0.

In the case of G5A U9G, the self-cleavage worked out at 0.111.

In the case of G5A G81C, the self-cleavage was 0.0791. Take G5C C41G: the self-cleavage stood at 0. For G5C C41U the value was 0.277; for G5A C84A, 0.172. For G5A C84U, the self-cleavage was found to be 0.117. With G5C A70G the figure was 0.158; with G5C A70C, 0.158; with G5C A70U, 0.

With G5C G11U, the self-cleavage came out at 0.115. For G5A G80C, the self-cleavage came to 0.0563.

For G5A G82U, the self-cleavage was 0.0354. Consider G5A G82A, for which the self-cleavage amounted to 0.0554. On to G5C A71U, for which the self-cleavage came out at 0.18. With G5C A71C the figure was 0.0639. Turning to G5C A71G, the self-cleavage was 0.0923. With G5A G68U the figure was 0.146; with G5C G34C, 0. Turning to G5C G34U, the self-cleavage was 0.0426. With G5C G34A the figure was 0.0692.

With G5C C30A, the self-cleavage is 0.

As for G5C C30G, the self-cleavage worked out at 0.0875. Regarding G5C G39A, the self-cleavage was found to be 0. For G5C G39U the value was 0.0346; for G5C G39C, 0.0462. On to G5C C66A, for which the self-cleavage came out at 0.172. For G5C C66U the value was 0.106; for G5A G31C, 0.095.

Consider G5A G54C, for which the self-cleavage was determined as 0.225. Consider G5A G54U, for which the self-cleavage came out at 0.113. With G5A U20C the figure was 0; with G5A C85G, 0.147; with G5C C85G, 0.0755. With G5C C85A the figure was 0.199.

Take G5C G40A: the self-cleavage was 0.208. For the variant G5C G40C, the self-cleavage came out at 0.256. Consider G5A G40U, for which the self-cleavage is 0.119. As for G5A G34U, the self-cleavage amounted to 0.0282.

Consider G5C C48A, for which the self-cleavage was 0.0875. With G5C G29C, the self-cleavage was found to be 0.0615.

On to G5A G38C, for which the self-cleavage worked out at 0.208.

On to G5C C64U, for which the self-cleavage stood at 0.332.

Take G5A U37G: the self-cleavage is 0.0504. With G5A G55C the figure was 0.104; with G5C C49U, 0.0755. For G5C C49A, the self-cleavage was found to be 0.178.

G5C G17C: the self-cleavage was found to be 0.151. As for G5A C62U, the self-cleavage was determined as 0.16. For G5A C62A the value was 0; for G5A U46C, 0.185.

Regarding G5A U46A, the self-cleavage was 0. For G5C C75U the value was 0; for G5C C75G, 0.123; for G5A G74U, 0.0326. On to G5A G74A, for which the self-cleavage was 0.0326. With G5A G35A the figure was 0.0692. G5A G35C: the self-cleavage worked out at 0.119. As to G5C G6C, the self-cleavage was 0.151. Turning to G5C G6A, the self-cleavage was 0.

For G5C A45G, the self-cleavage was determined as 0.0875.

As for G5C A45U, the self-cleavage is 0.131. As to G5A G39C, the self-cleavage was 0.119.

As to G5C G35C, the self-cleavage is 0.147. For G5A C66G the value was 0.244. For G5A C66U, the self-cleavage stood at 0.305. With G5A G67C, the self-cleavage worked out at 0.162.

G5C A43C: the self-cleavage is 0. In the case of G5C A43G, the self-cleavage worked out at 0. For G5A U60C the value was 0.353; for G5C C86A, 0.166. Take G5C A77C: the self-cleavage was 0.

On to G5C A77G, for which the self-cleavage was 0.0475. For G5A G29A the value was 0.155; for G5A G29C, 0.0755.

Take G5A G29U: the self-cleavage amounted to 0.0519. For G5A G52U the value was 0.237. For G5C C15U the value was 0.356; for G5C C15A, 0.262; for G5A G73C, 0.268. With G5A G73U the figure was 0.108. For the variant G5A G73A, the self-cleavage worked out at 0. As for G5A C86U, the self-cleavage came to 0.396. For the variant G5A C86A, the self-cleavage came to 0.132. With G5C C13U the figure was 0.133; with G5C C13A, 0.0755.

On to G5C C22U, for which the self-cleavage is 0.151. As to G5C C22G, the self-cleavage amounted to 0. For the variant G5A C61A, the self-cleavage is 0.0573.

For G5A C61U, the self-cleavage was 0.0326. For G5A C61G the value was 0.166. Consider G5C C21G, for which the self-cleavage stood at 0.125.

As to G5C C21U, the self-cleavage is 0.0554.

Consider G5A G17U, for which the self-cleavage turned out to be 0.123. With G5C C24U the figure was 0.252. For G5C C24G the value was 0; for G5C G25A, 0.0639. Take G5C G25C: the self-cleavage was determined as 0. On to G5C C19U, for which the self-cleavage stood at 0.0536. With G5C C19G the figure was 0; with G5C C19A, 0. As for G5A U69A, the self-cleavage amounted to 0.0519. For G5A U69C the value was 0.208; for G5C G10A, 0.208. With G5C C84G the figure was 0.332; with G5A U12C, 0.0615; with G5A U12G, 0.145. Turning to G5A U12A, the self-cleavage worked out at 0.

Turning to G5C C36A, the self-cleavage turned out to be 0.0489.

With G5C C36G, the self-cleavage came out at 0.0978.

On to G5A G50C, for which the self-cleavage stood at 0.225.

As to G5C A78G, the self-cleavage worked out at 0. With G5C A78C the figure was 0.0615; with G5C C26A, 0.508; with G5A U72C, 0.142. With G5A U72A the figure was 0.101; with G5A U72G, 0.147; with G5A U47C, 0.0615. For G5C G28A the value was 0.104; for G5C G28C, 0.208.

For G5C G28U, the self-cleavage turned out to be 0. For the variant G5A G76U, the self-cleavage is 0.148.

On to G5A G76C, for which the self-cleavage is 0.0959. With G5C C61A the figure was 0.432; with G5C C14G, 0.111; with G5A C64A, 0.198.

Take G5A C64G: the self-cleavage was 0.237. As to G5A C64U, the self-cleavage stood at 0.359. Take G5C G38A: the self-cleavage was found to be 0.199. Consider G5C G38C, for which the self-cleavage was 0.108. Take G5A U27G: the self-cleavage came to 0.217. With G5A U27A, the self-cleavage came out at 0.504. Turning to G5A U27C, the self-cleavage was determined as 0.0594.

On to G5C C33U, for which the self-cleavage came to 0.386. Turning to G5A G53C, the self-cleavage was determined as 0.302. On to G5A G53A, for which the self-cleavage is 0.248. Take G5A G28U: the self-cleavage was determined as 0. Take G5A U65A: the self-cleavage came to 0.259. On to G5A U65G, for which the self-cleavage amounted to 0. For G5C A42C the value was 0.115. G5C A42U: the self-cleavage was determined as 0. With G5C A51U, the self-cleavage was 0.298. For G5C A51C the value was 0.293; for G5A G6C, 0.0536.

In the case of G5A G6U, the self-cleavage turned out to be 0.0923. For G5C C18G the value was 0.262; for G5C C18A, 0.0639; for G5A C75U, 0.0346.

Regarding G5A C75G, the self-cleavage is 0. With G5A C75A the figure was 0.113. G5C C58G: the self-cleavage was found to be 0.378. For G5A U23A the value was 0.342.

As to G5A U23C, the self-cleavage worked out at 0.0573. On to G5A C58A, for which the self-cleavage turned out to be 0.253. For G5A C58U the value was 0.252. With G5A C58G the figure was 0.119; with G5C C32A, 0.0615; with G5C C57A, 0.111. Turning to G5C C57G, the self-cleavage was 0.35. For G5C A87G the value was 0.124; for G5C C62G, 0.145. For G5A U79A the value was 0.192; for G5C C44U, 0.0504; for G5C C7U, 0.0462. G5C C7A: the self-cleavage came to 0.119. With G5C C7G, the self-cleavage was 0.
